Data: patent US8541373B2, “BChE albumin fusions for the treatment of cocaine abuse” (priority 2009, dated 2013)

Tested on: cocaine
Experiment: Plasma cocaine, benzoylecgonine and ecgonine methyl ester (LC-MS) and cocaine PK after IV cocaine post-AlbuBChE
Type: in vivo, cynomolgus monkeys
Details: for Ecgonine methyl ester plasma concentration (mean) / Mean benzoylecgonine plasma concentration / Mean cocaine plasma concentration / Mean benzoylecgonine AUC(0-t) / Mean cocaine AUC % Extrap / Mean cocaine AUC(0-t) / Mean cocaine AUC(0-∞) / Mean cocaine C0 / Mean cocaine CI / Mean cocaine Vss / Mean cocaine t½: 5 mg/kg IM
Method: Blood was placed into K2EDTA blood collection tubes with esterase inhibitor diisopropylfluorophosphate (DFP). Tubes were inverted several times and placed on wet ice upon collection. Samples were centrifuged at 2-8° C. within 45 minutes of collection. The resultant plasma was recovered and a single 200 μL aliquot of plasma was placed into polypropylene tubes. Plasma samples were frozen over dry ice and stored at −75±15° C.
The following outline describes the LC-MS-based assay employed for the measurement of cocaine in plasma samples. Prior to MS analysis, plasma samples, calibration standards and controls were extracted using supported liquid extraction (SLE-ISOLUTE, Biotage). Twenty-five microliters of samples (25 μL) received 150 μl of 5% Ammonium hydroxide and 25 μl internal standard solution (Cocaine-d3). After mixing and transfer to SLE plate, samples were eluted with methylene chloride and evaporated to dryness. After resuspension in 50 μl of reconstitution solution—5% ACM in 10 mM ammonium acetate in water, 10 μl was injected onto Thermo Hypercarb column at 0.5 ml/min. Mobile phase was biphasic. Mass spectrophotometric detection was performed using Api 4000, APCI positive interface and Multiple Reaction Monitoring (MRM). Plasma concentrations of cocaine, benzoylecgonine and ecgonine methyl ester were determined using this assay.
When the data permits, pharmacokinetic parameter values for cocaine and its metabolites were determined using plasma concentration-times profiles for individual animals at all the study days of cocaine administration. […] Specifically the model for non-compartmental analysis with IV bolus input for cocaine and extravascular input for the metabolites.

[1] = cocaine 1 mg/kg IV 48 hr post-AlbuBChE, 10 min after cocaine
[2] = cocaine 1 mg/kg IV 48 hr post-AlbuBChE, 15 min after cocaine
[3] = cocaine 1 mg/kg IV 48 hr post-AlbuBChE, 20 min after cocaine
[4] = cocaine 1 mg/kg IV 48 hr post-AlbuBChE, 30 min after cocaine
[5] = cocaine 1 mg/kg IV 48 hr post-AlbuBChE, 40 min after cocaine
[6] = cocaine 1 mg/kg IV 48 hr post-AlbuBChE, 60 min after cocaine
[7] = cocaine 1 mg/kg IV 96 hr post-AlbuBChE
[8] = cocaine 1 mg/kg IV 96 hr post-AlbuBChE, 5 min after cocaine
[9] = cocaine 1 mg/kg IV 96 hr post-AlbuBChE, 10 min after cocaine
[10] = cocaine 1 mg/kg IV 96 hr post-AlbuBChE, 15 min after cocaine
[11] = cocaine 1 mg/kg IV 96 hr post-AlbuBChE, 20 min after cocaine
[12] = cocaine 1 mg/kg IV 96 hr post-AlbuBChE, 30 min after cocaine
[13] = cocaine 1 mg/kg IV 96 hr post-AlbuBChE, 40 min after cocaine
[14] = cocaine 1 mg/kg IV 96 hr post-AlbuBChE, 60 min after cocaine
[15] = cocaine 1 mg/kg IV 120 hr post-AlbuBChE
[16] = cocaine 1 mg/kg IV 120 hr post-AlbuBChE, 5 min after cocaine
[17] = cocaine 1 mg/kg IV 120 hr post-AlbuBChE, 10 min after cocaine
[18] = cocaine 1 mg/kg IV 120 hr post-AlbuBChE, 15 min after cocaine
[19] = cocaine 1 mg/kg IV 120 hr post-AlbuBChE, 20 min after cocaine
[20] = cocaine 1 mg/kg IV 120 hr post-AlbuBChE, 30 min after cocaine
[21] = cocaine 1 mg/kg IV 120 hr post-AlbuBChE, 40 min after cocaine
[22] = cocaine 1 mg/kg IV 120 hr post-AlbuBChE, 60 min after cocaine
[23] = cocaine 1 mg/kg IV 240 hr post-AlbuBChE
[24] = cocaine 1 mg/kg IV 240 hr post-AlbuBChE, 5 min after cocaine
[25] = cocaine 1 mg/kg IV 240 hr post-AlbuBChE, 10 min after cocaine
[26] = cocaine 1 mg/kg IV 240 hr post-AlbuBChE, 15 min after cocaine
[27] = cocaine 1 mg/kg IV 240 hr post-AlbuBChE, 20 min after cocaine
[28] = cocaine 1 mg/kg IV 240 hr post-AlbuBChE, 30 min after cocaine
[29] = cocaine 1 mg/kg IV 240 hr post-AlbuBChE, 40 min after cocaine
[30] = cocaine 1 mg/kg IV 240 hr post-AlbuBChE, 60 min after cocaine

AlbuBChE
Ecgonine methyl ester plasma concentration (mean) [1]: 68.9 ng/mL | Mean benzoylecgonine plasma concentration [1]: 21.0 ng/mL | Mean cocaine plasma concentration [1]: 89.9 ng/mL | Ecgonine methyl ester plasma concentration (mean) [2]: 102 ng/mL | Mean benzoylecgonine plasma concentration [2]: 24.4 ng/mL | Mean cocaine plasma concentration [2]: 82.7 ng/mL | Ecgonine methyl ester plasma concentration (mean) [3]: 107 ng/mL | Mean benzoylecgonine plasma concentration [3]: 23.7 ng/mL | Mean cocaine plasma concentration [3]: 49.5 ng/mL | Ecgonine methyl ester plasma concentration (mean) [4]: 108 ng/mL | Mean benzoylecgonine plasma concentration [4]: 25.9 ng/mL | Mean cocaine plasma concentration [4]: 36.7 ng/mL | Ecgonine methyl ester plasma concentration (mean) [5]: 106 ng/mL | Mean benzoylecgonine plasma concentration [5]: 25.5 ng/mL | Mean cocaine plasma concentration [5]: 18.9 ng/mL | Ecgonine methyl ester plasma concentration (mean) [6]: 108 ng/mL | Mean benzoylecgonine plasma concentration [6]: 24.4 ng/mL | Mean cocaine plasma concentration [6]: 5.74 ng/mL | Mean benzoylecgonine AUC(0-t) [7]: 3222 ng·min/mL | Mean cocaine AUC % Extrap [7]: 14.2% | Mean cocaine AUC(0-t) [7]: 6624 ng·min/mL | Mean cocaine AUC(0-∞) [7]: 7729 ng·min/mL | Mean cocaine C0 [7]: 190 ng/mL | Mean cocaine CI [7]: 129 mL/min/kg | Mean cocaine Vss [7]: 4.111 L/kg | Mean cocaine t½ [7]: 21.3 min | Ecgonine methyl ester plasma concentration (mean) [8]: 100 ng/mL | Mean benzoylecgonine plasma concentration [8]: 44.2 ng/mL | Mean cocaine plasma concentration [8]: 176 ng/mL | Ecgonine methyl ester plasma concentration (mean) [9]: 60.9 ng/mL | Mean benzoylecgonine plasma concentration [9]: 43.5 ng/mL | Mean cocaine plasma concentration [9]: 166 ng/mL | Ecgonine methyl ester plasma concentration (mean) [10]: 82.2 ng/mL | Mean benzoylecgonine plasma concentration [10]: 49.7 ng/mL | Mean cocaine plasma concentration [10]: 174 ng/mL | Ecgonine methyl ester plasma concentration (mean) [11]: 104 ng/mL | Mean benzoylecgonine plasma concentration [11]: 51.1 ng/mL | Mean cocaine plasma concentration [11]: 136 ng/mL | Ecgonine methyl ester plasma concentration (mean) [12]: 111 ng/mL | Mean benzoylecgonine plasma concentration [12]: 56.1 ng/mL | Mean cocaine plasma concentration [12]: 99.0 ng/mL | Ecgonine methyl ester plasma concentration (mean) [13]: 126 ng/mL | Mean benzoylecgonine plasma concentration [13]: 57.7 ng/mL | Mean cocaine plasma concentration [13]: 80.6 ng/mL | Ecgonine methyl ester plasma concentration (mean) [14]: 127 ng/mL | Mean benzoylecgonine plasma concentration [14]: 60.5 ng/mL | Mean cocaine plasma concentration [14]: 35.2 ng/mL | Mean benzoylecgonine AUC(0-t) [15]: 3624 ng·min/mL | Mean cocaine AUC % Extrap [15]: 14.5% | Mean cocaine AUC(0-t) [15]: 9378 ng·min/mL | Mean cocaine AUC(0-∞) [15]: 11046 ng·min/mL | Mean cocaine C0 [15]: 411 ng/mL | Mean cocaine CI [15]: 93.0 mL/min/kg | Mean cocaine Vss [15]: 2.857 L/kg | Mean cocaine t½ [15]: 22.3 min | Ecgonine methyl ester plasma concentration (mean) [16]: 45.5 ng/mL | Mean benzoylecgonine plasma concentration [16]: 44.6 ng/mL | Mean cocaine plasma concentration [16]: 298 ng/mL | Ecgonine methyl ester plasma concentration (mean) [17]: 46.0 ng/mL | Mean benzoylecgonine plasma concentration [17]: 47.5 ng/mL | Mean cocaine plasma concentration [17]: 217 ng/mL | Ecgonine methyl ester plasma concentration (mean) [18]: 96.5 ng/mL | Mean benzoylecgonine plasma concentration [18]: 50.3 ng/mL | Mean cocaine plasma concentration [18]: 216 ng/mL | Ecgonine methyl ester plasma concentration (mean) [19]: 60.1 ng/mL | Mean benzoylecgonine plasma concentration [19]: 57.3 ng/mL | Mean cocaine plasma concentration [19]: 161 ng/mL | Ecgonine methyl ester plasma concentration (mean) [20]: 79.9 ng/mL | Mean benzoylecgonine plasma concentration [20]: 63.6 ng/mL | Mean cocaine plasma concentration [20]: 139 ng/mL | Ecgonine methyl ester plasma concentration (mean) [21]: 122 ng/mL | Mean benzoylecgonine plasma concentration [21]: 69.5 ng/mL | Mean cocaine plasma concentration [21]: 113 ng/mL | Ecgonine methyl ester plasma concentration (mean) [22]: 187 ng/mL | Mean benzoylecgonine plasma concentration [22]: 69.2 ng/mL | Mean cocaine plasma concentration [22]: 49.5 ng/mL | Mean benzoylecgonine AUC(0-t) [23]: 5088 ng·min/mL | Mean cocaine AUC % Extrap [23]: 29.2% | Mean cocaine AUC(0-t) [23]: 12952 ng·min/mL | Mean cocaine AUC(0-∞) [23]: 18578 ng·min/mL | Mean cocaine C0 [23]: 424 ng/mL | Mean cocaine CI [23]: 55.6 mL/min/kg | Mean cocaine Vss [23]: 2.637 L/kg | Mean cocaine t½ [23]: 33.8 min | Ecgonine methyl ester plasma concentration (mean) [24]: 127 ng/mL | Mean benzoylecgonine plasma concentration [24]: 44.9 ng/mL | Mean cocaine plasma concentration [24]: 346 ng/mL | Ecgonine methyl ester plasma concentration (mean) [25]: 26.1 ng/mL | Mean benzoylecgonine plasma concentration [25]: 56.4 ng/mL | Mean cocaine plasma concentration [25]: 283 ng/mL | Ecgonine methyl ester plasma concentration (mean) [26]: 30.7 ng/mL | Mean benzoylecgonine plasma concentration [26]: 71.9 ng/mL | Mean cocaine plasma concentration [26]: 283 ng/mL | Ecgonine methyl ester plasma concentration (mean) [27]: 35.1 ng/mL | Mean benzoylecgonine plasma concentration [27]: 83.4 ng/mL | Mean cocaine plasma concentration [27]: 226 ng/mL | Ecgonine methyl ester plasma concentration (mean) [28]: 49.6 ng/mL | Mean benzoylecgonine plasma concentration [28]: 88.4 ng/mL | Mean cocaine plasma concentration [28]: 211 ng/mL | Ecgonine methyl ester plasma concentration (mean) [29]: 53.1 ng/mL | Mean benzoylecgonine plasma concentration [29]: 101 ng/mL | Mean cocaine plasma concentration [29]: 161 ng/mL | Ecgonine methyl ester plasma concentration (mean) [30]: 58.0 ng/mL | Mean benzoylecgonine plasma concentration [30]: 108 ng/mL | Mean cocaine plasma concentration [30]: 111 ng/mL | AlbuBChE activity (cocaine concentrations vs Day 1 control) (240 hr post-AlbuBChE administration of 0.2, 1 or 5 mg/kg): not active
